Results: patent publication US20070082369A1

Experiments:
[1] = target: Pichia-expressed recombinant Der f 1 protein PDerf1303b (Dermatophagoides farinae) (UniProt P16311); assay: sandwich ELISA, capture MAb 6A8, detection biotinylated MAb 4C1; 6.25 ng protein per well
[2] = target: Heska native Derf1 (Dermatophagoides farinae) (UniProt P16311); assay: as above
[3] = target: E. coli-expressed recombinant Der f 1 protein PDerf1303c (Dermatophagoides farinae) (UniProt P16311); assay: as above
[4] = target: Pichia-expressed recombinant Der f 1 protein PDerf1303b (Dermatophagoides farinae) (UniProt P16311); assay: sandwich ELISA, capture MAb 6A8, detection biotinylated MAb 4C1; 1.5 ng protein per well
[5] = target: Heska native Derf1 (Dermatophagoides farinae) (UniProt P16311); assay: as above
[6] = target: E. coli-expressed recombinant Der f 1 protein PDerf1303c (Dermatophagoides farinae) (UniProt P16311); assay: as above
[7] = target: Pichia-expressed recombinant Der f 1 protein PDerf1303b (Dermatophagoides farinae) (UniProt P16311); assay: sandwich ELISA, capture MAb 6A8, detection biotinylated MAb 4C1; 50 ng protein per well
[8] = target: Heska native Derf1 (Dermatophagoides farinae) (UniProt P16311); assay: as above
[9] = target: E. coli-expressed recombinant Der f 1 protein PDerf1303c (Dermatophagoides farinae) (UniProt P16311); assay: as above
[10] = target: Pichia-expressed recombinant Der f 1 protein PDerf1303b (Dermatophagoides farinae) (UniProt P16311); assay: sandwich ELISA, capture MAb 6A8, detection biotinylated MAb 4C1; 2.5 ng protein per well
[11] = target: Heska native Derf1 (Dermatophagoides farinae) (UniProt P16311); assay: as above
[12] = target: E. coli-expressed recombinant Der f 1 protein PDerf1303c (Dermatophagoides farinae) (UniProt P16311); assay: as above
[13] = target: Pichia-expressed recombinant Der f 1 protein PDerf1303b (Dermatophagoides farinae) (UniProt P16311); assay: sandwich ELISA, capture MAb 6A8, detection biotinylated MAb 4C1; 0.75 ng protein per well
[14] = target: Heska native Derf1 (Dermatophagoides farinae) (UniProt P16311); assay: as above
[15] = target: E. coli-expressed recombinant Der f 1 protein PDerf1303c (Dermatophagoides farinae) (UniProt P16311); assay: as above
[16] = target: Pichia-expressed recombinant Der f 1 protein PDerf1303b (Dermatophagoides farinae) (UniProt P16311); assay: sandwich ELISA, capture MAb 6A8, detection biotinylated MAb 4C1; 3.1 ng protein per well
[17] = target: Heska native Derf1 (Dermatophagoides farinae) (UniProt P16311); assay: as above
[18] = target: E. coli-expressed recombinant Der f 1 protein PDerf1303c (Dermatophagoides farinae) (UniProt P16311); assay: as above
[19] = target: Pichia-expressed recombinant Der f 1 protein PDerf1303b (Dermatophagoides farinae) (UniProt P16311); assay: sandwich ELISA, capture MAb 6A8, detection biotinylated MAb 4C1; 25 ng protein per well
[20] = target: Heska native Derf1 (Dermatophagoides farinae) (UniProt P16311); assay: as above
[21] = target: E. coli-expressed recombinant Der f 1 protein PDerf1303c (Dermatophagoides farinae) (UniProt P16311); assay: as above

OD [1]: 1960 OD x1000
OD [2]: 2200 OD x1000
OD [3]: 890 OD x1000
OD [4]: 916 OD x1000
OD [5]: 2040 OD x1000
OD [6]: 268 OD x1000
OD [7]: 2150 OD x1000
OD [8]: 2180 OD x1000
OD [9]: 1980 OD x1000
OD [10]: 2090 OD x1000
OD [11]: 2290 OD x1000
OD [12]: 1370 OD x1000
OD [13]: 405 OD x1000
OD [14]: 1740 OD x1000
OD [15]: 136 OD x1000
OD [16]: 1540 OD x1000
OD [17]: 2220 OD x1000
OD [18]: 503 OD x1000
OD [19]: 2160 OD x1000
OD [20]: 2140 OD x1000
OD [21]: 1770 OD x1000
Substance: anti-Der f 1 protein monoclonal antibody 6A8
